Values joined by “and” are separate entries in the source; they are usually repeats but may differ in a detail not shown here. Equal values may be shown once.
Target: the molecule itself
Experiment: cryo-EM structure

B1: Nipah virus (NiV) nucleocapsid protein (natural protein)
chain: MSDIFEEAASFRSYQSKLGRDGRASAATATLTTKIRIFVPATNSPELRWELTLFALDVIRSPSAAESMKVGAAFTLISMYSERPGALIRSLLNDPDIEAVIIDVGSMVNGIPVMERRGDKAQEEMEGLMRILKTARDSSKGKTPFVDSRAYGLRITDMSTLVSAVITIEAQIWILIAKAVTAPDTAEESETRRWAKYVQQKRVNPFFALTQQWLTEMRNLLSQSLSVRKFMVEILIEVKKGGSAKGRAVEIISDIGNYVEETGMAGFFATIRFGLETRYPALALNEFQSDLNTIKSLMLLYREIGPRAPYMVLLEESIQTKFAPGGYPLLWSFAMGVATTIDRSMGALNINRGYLEPMYFRLGQKSARHHAGGIDQNMANRLGLSSDQVAELAAAVQETSAGRQESNVQAREAKFAAGGVLIGGSDQDIDEGEEPIEQSGRQSVTFKREMSISSLANSVPSSSVSTSGGTRLTNSLLNLRSRLAAKAAKEAASSNATDDPAISNRTQGESEKKNNQDLKPAQNDLDFVRADV
notes: also called N protein; nucleoprotein (N)
stoichiometry N: 13 subunits and 14 subunits

— paper PMC8318291, “CryoEM structure of the Nipah virus nucleocapsid assembly” (PLoS Pathogens, 2021)
